Results: patent US20050080014A1 (Amgen, published 2005)
Where a chain is given by its changes, count along the chain named. Read-outs that look alike come from different tables or passages of the source. Blank lines part the entries; values can stand above or below the molecule they belong to. Groups on a side chain read outwards from the residue. No end group written: not given here. maleimide = maleimide group of MeO-PEG-maleimide, which reacts with the Cys side-chain thiol

Molecular target: T1, human mpl receptor (human, UniProt P40238 26-635)
T1 sequence (looked up): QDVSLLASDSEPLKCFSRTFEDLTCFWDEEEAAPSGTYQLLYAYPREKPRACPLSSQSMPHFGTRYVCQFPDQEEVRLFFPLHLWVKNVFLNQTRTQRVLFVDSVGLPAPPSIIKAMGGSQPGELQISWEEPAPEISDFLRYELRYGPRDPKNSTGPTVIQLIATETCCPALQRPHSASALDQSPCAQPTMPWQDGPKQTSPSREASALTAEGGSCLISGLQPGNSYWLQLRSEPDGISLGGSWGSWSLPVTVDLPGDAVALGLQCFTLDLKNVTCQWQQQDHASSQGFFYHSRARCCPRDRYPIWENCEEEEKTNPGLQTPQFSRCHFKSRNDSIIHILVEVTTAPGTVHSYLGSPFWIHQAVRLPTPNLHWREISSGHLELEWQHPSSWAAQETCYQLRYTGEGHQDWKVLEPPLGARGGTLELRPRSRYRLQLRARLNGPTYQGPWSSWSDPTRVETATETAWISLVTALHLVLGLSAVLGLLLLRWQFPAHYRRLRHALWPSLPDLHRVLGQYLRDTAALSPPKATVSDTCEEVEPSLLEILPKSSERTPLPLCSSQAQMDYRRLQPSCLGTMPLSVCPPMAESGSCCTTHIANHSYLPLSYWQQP
Test: cell-based or functional assay

Molecule: TMP-(Gly)n-TMP, n = 9 (peptide)
- Relative Potency (EC50), proliferation of murine 32D cells transfected with human mpl receptor (scale: log units of activity): 4

B4: TMP-(Gly)n-TMP, n = 1 (peptide)
peptide: IEGPTLRQWLAARAGIEGPTLRQWLAARA
- Relative Potency (EC50), proliferation of murine 32D cells transfected with human mpl receptor: 4 log units of activity (1 unit is approximately 10-fold)

B5: TMP monomer (SEQ ID NO: 1) (peptide)
peptide: IEGPTLRQWLAARA
- Relative Potency (EC50), proliferation of murine 32D cells transfected with human mpl receptor: 1 log units of activity (1 unit is approximately 10-fold)

B6: TMP-GGGC(PEG)GGGG-TMP (SEQ ID NO. 18) (peptide)
peptide: IEGPTLRQWLAARAGGGC([maleimide-mPEG 5 kDa])GGGGIEGPTLRQWLAARA
- Relative Potency (EC50), proliferation of murine 32D cells transfected with human mpl receptor: 5 log units of activity (1 unit is approximately 10-fold)

B7: TMP-(Gly)n-TMP, n = 6 (peptide)
peptide: IEGPTLRQWLAARAGGGGGGIEGPTLRQWLAARA
- Relative Potency (EC50), proliferation of murine 32D cells transfected with human mpl receptor: 4 log units of activity (1 unit is approximately 10-fold)

B9: TMP C-C dimer (SEQ ID NO: 2) (peptide)
peptide: IEGPTLRQWLAARA
modifications: also: dimer of two TMP chains joined at C-termini through a Lys branch (structure only in a drawing)
- Relative Potency (EC50), proliferation of murine 32D cells transfected with human mpl receptor: 3.5 log units of activity (1 unit is approximately 10-fold)

B10: TMP-(Gly)n-TMP, n = 8 (peptide)
peptide: IEGPTLRQWLAARAGGGGGGGGIEGPTLRQWLAARA
- Relative Potency (EC50), proliferation of murine 32D cells transfected with human mpl receptor: 4.5 log units of activity (1 unit is approximately 10-fold)

B11: peptide 22 (dimer of a dimer, oxidised peptide 18) (peptide)
peptide: B10 peptide with G18C
modifications: also: homodimer: intermolecular disulfide between the linker Cys18 of two chains
- Relative Potency (EC50), proliferation of murine 32D cells transfected with human mpl receptor: 4 log units of activity (1 unit is approximately 10-fold)

B12: TMP-GGGCGGGG-TMP (SEQ ID NO. 16) (peptide)
peptide: B10 peptide with G18C
- Relative Potency (EC50), proliferation of murine 32D cells transfected with human mpl receptor: 4 log units of activity (1 unit is approximately 10-fold)

B14: TMP-GGGKGGGG-TMP (SEQ ID NO. 14) (peptide)
peptide: B10 peptide with G18K
- Relative Potency (EC50), proliferation of murine 32D cells transfected with human mpl receptor: 4 log units of activity (1 unit is approximately 10-fold)

B15: TMP-GGGK(PEG)GGGG-TMP (SEQ ID NO. 17) (peptide)
peptide: B10 peptide with G18K
modifications: not fully specified (residue 18)
- Relative Potency (EC50), proliferation of murine 32D cells transfected with human mpl receptor: 5 log units of activity (1 unit is approximately 10-fold)

B16: TMP-GGGNGSGG-TMP (SEQ ID NO. 19) (peptide)
peptide: B10 peptide with G18N, G20S
- Relative Potency (EC50), proliferation of murine 32D cells transfected with human mpl receptor: 4 log units of activity (1 unit is approximately 10-fold)

B17: TMP-GPNG-TMP (SEQ ID NO. 10) (peptide)
peptide: IEGPTLRQWLAARAGPNGIEGPTLRQWLAARA
- Relative Potency (EC50), proliferation of murine 32D cells transfected with human mpl receptor: 3 log units of activity (1 unit is approximately 10-fold)

B18: TMP-(Gly)n-TMP, n = 4 (peptide)
peptide: B17 peptide with P16G, N17G
- Relative Potency (EC50), proliferation of murine 32D cells transfected with human mpl receptor: 4 log units of activity (1 unit is approximately 10-fold)

The remaining lines, values ahead:

- Relative Potency (EC50), proliferation of murine 32D cells transfected with human mpl receptor (scale: log units of activity): 4
Molecule: TPO (ligand)

- Relative Potency (EC50), proliferation of murine 32D cells transfected with human mpl receptor (scale: log units of activity): 4
Molecule: TMP-(Gly)n-TMP, n = 10 (peptide)

- Relative Potency (EC50), proliferation of murine 32D cells transfected with human mpl receptor (scale: log units of activity): 4
Molecule: TMP-(Gly)n-TMP, n = 14 (peptide)

- Relative Potency (EC50), proliferation of murine 32D cells transfected with human mpl receptor: 4 log units of activity (1 unit is approximately 10-fold)
B1: TMP-(Gly)n-TMP, n = 7 (peptide)
peptide: IEGPTLRQWLAARAGGGGGGGIEGPTLRQWLAARA

- Relative Potency (EC50), proliferation of murine 32D cells transfected with human mpl receptor: 4.5 log units of activity (1 unit is approximately 10-fold)
B2: TMP-(Gly)n-TMP, n = 0 (peptide)
peptide: IEGPTLRQWLAARAIEGPTLRQWLAARA

- Relative Potency (EC50), proliferation of murine 32D cells transfected with human mpl receptor: 4 log units of activity (1 unit is approximately 10-fold)
B3: TMP-(Gly)n-TMP, n = 2 (peptide)
peptide: IEGPTLRQWLAARAGGIEGPTLRQWLAARA

- Relative Potency (EC50), proliferation of murine 32D cells transfected with human mpl receptor: 4 log units of activity (1 unit is approximately 10-fold)
B8: TMP-(Gly)n-TMP, n = 3 (peptide)
peptide: IEGPTLRQWLAARAGGGIEGPTLRQWLAARA

- Relative Potency (EC50), proliferation of murine 32D cells transfected with human mpl receptor: 0.5 log units of activity (1 unit is approximately 10-fold)
B13: IEGPTLRQALAARA-GGGGGGGG-IEGPTLRQALAARA (SEQ ID NO. 13) (peptide)
peptide: B10 peptide with W9A, W31A

- Relative Potency (EC50), proliferation of murine 32D cells transfected with human mpl receptor: 4 log units of activity (1 unit is approximately 10-fold)
B19: TMP-(Gly)n-TMP, n = 5 (peptide)
peptide: IEGPTLRQWLAARAGGGGGIEGPTLRQWLAARA
